Reference: patent US12324447B2, “Animal feed compositions and uses thereof” (priority 2015, dated 2025)
“Also recorded” adds a separate entry of the source. Read-outs that look alike come from different tables or passages of the source. Marks after values point to notes of the source that are not given here.

Key:
[1] = tested on: M. lysodeikticus substrate; test: Temperature stability: residual activity by OD drop after heat treatment; conditions: for Residual activity (%): OD drop pH 6
[2] = In vivo piglet trial (growth performance); parameters: species or system weaned piglets (Large-White x Redon); conditions: for ADFI (g/d), Mean / ADWG (g/d), Mean / FCR, Mean: SEQ ID NO: 257 50 mg/kg feed, VevoVital 5000 mg/kg feed; for ADFI, % relative NC / ADWG, % relative NC / FCR, % relative NC: relative to negative control
[3] = In vivo broiler trial (growth performance)
[4] = tested on: Exiguobacterium undea (DSM14481); test: Lysozyme activity turbidity assay (optical density drop at 540 nm); type: biochemical, Exiguobacterium undae
[5] = tested on: Clostridium perfringens DSM756; type: cell-based; conditions: for Diameter of clearing zone (mm): lysozymes 100 μg/ml, Bacitracin zinc salt 50 μg/ml
[6] = Thermostability by Differential Scanning Calorimetry (DSC); type: physicochemical; conditions: 50 mM Na-acetate, DSC 200 K/hour
[7] = tested on: Micrococcus lysodeikticus ATTC No. 4698; test: Lysozyme activity turbidity assay (optical density drop at 540 nm)
[8] = Finisher (d 36-42), SEQ ID NO: 257 25 mg/kg feed, Avilamycin 10 mg/kg
[9] = Finisher (d 36-42), relative to unsupplemented control
[10] = Grower (d 22-36), SEQ ID NO: 257 25 mg/kg feed, Avilamycin 10 mg/kg
[11] = Grower (d 22-36), relative to unsupplemented control
[12] = Starter (d 1-22), SEQ ID NO: 257 25 mg/kg feed, Avilamycin 10 mg/kg
[13] = Starter (d 1-22), relative to unsupplemented control
[14] = Whole period (day 1 to day 42), SEQ ID NO: 257 25 mg/kg feed, Avilamycin 10 mg/kg
[15] = Whole period, relative to unsupplemented control

B1: SEQ ID NO: 257: mature GH24 lysozyme from Trichophaea saccata, comprising a GH24 domain and a lysozyme enhancing domain (LED) (protein, listed as Trichophaea saccata)
chain: YPVKTDLHCRSSPSTSASIVRTYSSGTEVQIQCQTTGTSVQGSNVWDKTQHGCYVADYYVKTGHSGIFTTKCGSSSGGGSCKPPPINAATVALIKEFEGFVPKPAPDPIGLPTVGYGHLCKTKGCKEVPYSFPLTQETATKLLQSDIKTFTSCVSNYVKDSVKLNDNQYGALASWAFNVGCGNVQTSSLIKRLNAGENPNTVAAQELPKWKYAGGKVMPGLVRRRNAEVALFKKPSSVQAHPPKC
modifications: mat_peptide (1)..(245)
Time for which the lysozyme is stable ([1]; at temperatures as high as 99° C.): at least 90 seconds
Residual activity (%) ([1]; heat treatment 30 sec at 60 °C): 93%
Residual activity (%) ([1]; heat treatment 30 sec at 65 °C): 99%
Residual activity (%) ([1]; heat treatment 30 sec at 70 °C): 94%
Residual activity (%) ([1]; heat treatment 30 sec at 75 °C): 101%
Residual activity (%) ([1]; heat treatment 30 sec at 80 °C): 94%
Residual activity (%) ([1]; heat treatment 30 sec at 85 °C): 98%
Residual activity (%) ([1]; heat treatment 30 sec at 90 °C): 94%
Residual activity (%) ([1]; heat treatment 30 sec at 95 °C): 98%
Residual activity (%) ([1]; heat treatment 30 sec at 99 °C): 93%
Residual activity (%) ([1]; heat treatment 60 sec at 60 °C): 99%
Residual activity (%) ([1]; heat treatment 60 sec at 65 °C): 97%
Residual activity (%) ([1]; heat treatment 60 sec at 70 °C): 93%
Residual activity (%) ([1]; heat treatment 60 sec at 75 °C): 96%
Residual activity (%) ([1]; heat treatment 60 sec at 80 °C): 98%
Residual activity (%) ([1]; heat treatment 60 sec at 85 °C): 94%
Residual activity (%) ([1]; heat treatment 60 sec at 90 °C): 99%
Residual activity (%) ([1]; heat treatment 60 sec at 95 °C): 94%
Residual activity (%) ([1]; heat treatment 60 sec at 99 °C): 97%
Residual activity (%) ([1]; heat treatment 90 sec at 60 °C): 96%
Residual activity (%) ([1]; heat treatment 90 sec at 65 °C): 99%
Residual activity (%) ([1]; heat treatment 90 sec at 70 °C): 98%
Residual activity (%) ([1]; heat treatment 90 sec at 75 °C): 98%
Residual activity (%) ([1]; heat treatment 90 sec at 80 °C): 97%
Residual activity (%) ([1]; heat treatment 90 sec at 85 °C): 100%
Residual activity (%) ([1]; heat treatment 90 sec at 90 °C): 97%
Residual activity (%) ([1]; heat treatment 90 sec at 95 °C): 102%
Residual activity (%) ([1]; heat treatment 90 sec at 99 °C): 89%
ADFI (g/d), Mean ([2]; day 0-14): 333 g/day
ADWG (g/d), Mean ([2]; day 0-14): 265 g/day
FCR, Mean ([2]; day 0-14): 1.272^b
ADFI, % relative NC ([2]; day 0-14): 92.5%
ADWG, % relative NC ([2]; day 0-14): 91.4%
FCR, % relative NC ([2]; day 0-14): 102.6%
ADFI (g/d), Mean ([2]; day 0-42): 740^b g/d
ADWG (g/d), Mean ([2]; day 0-42): 538 g/day
FCR, Mean ([2]; day 0-42): 1.379^a
ADFI, % relative NC ([2]; day 0-42): 100.8%
ADWG, % relative NC ([2]; day 0-42): 107.8%
FCR, % relative NC ([2]; day 0-42): 92.9%
ADFI (g/d), Mean ([2]; day 14-42): 944^c g/d
ADWG (g/d), Mean ([2]; day 14-42): 674 g/day
FCR, Mean ([2]; day 14-42): 1.404^a
ADFI, % relative NC ([2]; day 14-42): 101.5%
ADWG, % relative NC ([2]; day 14-42): 111.8%
FCR, % relative NC ([2]; day 14-42): 90.9%
Improvement on FCR compared to the negative control ([2]; overall period (day 0 to day 42), lysozyme 50 mg/kg, VevoVital 5000 mg/kg): 7.1%
Improvement of ADWG compared to NC ([2]; starter period (days 14-42)): 11.8%
Improvement to FCR compared to NC ([2]; starter period, from day 15 to day 42, SEQ ID NO: 257 50 mg/kg, VevoVital (PC)): 9.1%
Improvement of ADWG compared to NC ([2]; whole period (day 0 to day 42)): 7.8%
FCR [3, 8]: 1.919
Feed intake (g/b) [3, 8]: 1524 g/b
Weight gain (g/b) [3, 8]: 800 g/b
FCR, Relative to C (%) [3, 9]: 97.9%
Feed intake, Relative to C (%) [3, 9]: 102.5%
Weight gain, Relative to C (%) [3, 9]: 105.1%
FCR [3, 10]: 1.714
Feed intake (g/b) [3, 10]: 2336 g/b
Weight gain (g/b) [3, 10]: 1364 g/b
FCR, Relative to C (%) [3, 11]: 99.5%
Feed intake, Relative to C (%) [3, 11]: 102.2%
Weight gain, Relative to C (%) [3, 11]: 102.7%
FCR [3, 12]: 1.414
Feed intake (g/b) [3, 12]: 1603 g/b
Weight gain (g/b) [3, 12]: 1133 g/b
FCR, Relative to C (%) [3, 13]: 98.1%
Feed intake, Relative to C (%) [3, 13]: 101.6%
Weight gain, Relative to C (%) [3, 13]: 103.4%
EPEF [3, 14]: 425
FCR [3, 14]: 1.657
Feed intake (g/b) [3, 14]: 5450 g/b
Motality [3, 14]: 10.0
Weight gain (g/b) [3, 14]: 3290 g/b
EPEF, Relative to C (%) [3, 15]: 101.7%
FCR, Relative to C (%) [3, 15]: 98.6%
Feed intake, Relative to C (%) [3, 15]: 101.9%
Weight gain, Relative to C (%) [3, 15]: 103.3%
EPEF improvement compared to NC diet ([3]; whole period, GH24 lysozyme 25 mg/kg): 1.7%
FCR improvement compared to NC diet ([3]; whole period, GH24 lysozyme 25 mg/kg, Avilamycin 10 mg/kg): 1.4%
Lysozyme activity against Exiguobacterium undea (in words) ([4]; OD drop assay): good activity
Lysozyme Activity against Exiguobacterium undae as measured by Optical Density Drop ([4]; assay pH 6): ++
Diameter of clearing zone (mm) ([5]; Experiment 1, 1/2 MHB pH 6): 11 mm
Diameter of clearing zone (mm) ([5]; Experiment 1, 1/10 MHB pH 7): 9 mm
Diameter of clearing zone (mm) ([5]; Experiment 2, 1/10 MHB pH 7): 8 mm
Antimicrobial activity against Clostridium perfringens (in words) ([5]; RDA, tested conditions (1/10 MHB pH 7 and 1/2 MHB pH 6)): significant activity; also recorded: showed antimicrobial activity
Denaturation Temperature Td (° C.) ([6]; pH 4.5): 70.0 °C
Denaturation Temperature Td (° C.) ([6]; pH 5.5): 70.8 °C
Denaturation Temperature Td (° C.) ([6]; pH 6.5): 69.7 °C
Lysozyme activity against Micrococcus lysodeikticus (in words) ([7]; OD drop assay): good activity
Lysozyme Activity against Micrococcus lysodeikticus as measured by Optical Density Drop ([7]; assay pH 6): ++
